Test results reported in patent US11260115B1, “Peptides and combination of peptides for use in immunotherapy against CLL and other cancers” (immatics biotechnologies GmbH, priority 2015, dated 2022).

target: HLA-A*02:01 (Homo sapiens, UniProt P04439, D140Y/D185E/D98H/E176V/E277Q/G131W/G231S/I119V/I121R/I166T/I218V/L300P/L318F/N151K/N90K/P208A/P217A/Q86G/Q94H/R138H/R169H/T345S); experiment: MHC binding assay (UV-ligand exchange, β2m ELISA, peptide exchange yield); details: binding to HLA-A*02:01
Outline: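 Peptide-HLA-A*02:01 complexes formed by UV-mediated exchange of a photocleavable ligand; exchange yield measured by streptavidin-capture ELISA detecting β2m with HRP anti-β2m, TMB read at 450 nm. Refolded monomer standards 15-500 ng/ml; samples diluted 100-fold.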

Peptide Exchange (MHC class I binding score, peptide exchange yield)	Substance
“+++” (>50 = +++)	31 (ELMHGVAGV; listed as Homo sapiens) [compound 31]
“+++” (>50 = +++)	379 (YLAELVTPIL; listed as Homo sapiens) [compound 379]
“+++” (>50 = +++)	56 (FVFEAPYTL; listed as Homo sapiens) [compound 56]
“+++” (>50 = +++)	262 (SLWNAGTSV; listed as Homo sapiens) [compound 262]
“+++” (>50 = +++)	360 (HLIDTNKIQL; listed as Homo sapiens) [compound 360]
“++++” (>75% = ++++)	16 (ALPGGAAVAAV; listed as Homo sapiens) [compound 16]
“+++” (>50 = +++)	254 (QLIPKLIFL; listed as Homo sapiens) [compound 254]
“++++” (>75% = ++++)	187 (VMDTHLVNI; listed as Homo sapiens) [compound 187]
“++” (>20% = ++)	248 (KTVEPPISQV; listed as Homo sapiens) [compound 248]
“+++” (>50 = +++)	374 (VLSVITEEL; listed as Homo sapiens) [compound 374]
“+++” (>50 = +++)	251 (LLYDNVPGA; listed as Homo sapiens) [compound 251]
“+++” (>50 = +++)	163 (SQLDISEPYKV; listed as Homo sapiens) [compound 163]
“++” (>20% = ++)	337 (YMYEKESEL; listed as Homo sapiens) [compound 337]
“+++” (>50 = +++)	342 (SLITPLQAV; listed as Homo sapiens) [compound 342]
“+++” (>50 = +++)	83 (GQGEVLVYV; listed as Homo sapiens) [compound 83]
“+++” (>50 = +++)	115 (LLFDKLYLL; listed as Homo sapiens) [compound 115]
“++” (>20% = ++)	141 (QILSEIVEA; listed as Homo sapiens) [compound 141]
“+++” (>50 = +++)	24 (AMAGDVVYA; listed as Homo sapiens) [compound 24]
“+++” (>50 = +++)	106 (FMASHLDYL; listed as Homo sapiens) [compound 106]
“++++” (>75% = ++++)	294 (ALLDQLHTLL; listed as Homo sapiens) [compound 294]
“++++” (>75% = ++++)	195 (YLGGFALSV; listed as Homo sapiens) [compound 195]
“+++” (>50 = +++)	153 (SLLAELHVL; listed as Homo sapiens) [compound 153]
“+++” (>50 = +++)	108 (VIYTLIHYI; listed as Homo sapiens) [compound 108]
“+++” (>50 = +++)	150 (SLFDQPLSII; listed as Homo sapiens) [compound 150]
“+++” (>50 = +++)	276 (VLNDGAPNV; listed as Homo sapiens) [compound 276]
“++++” (>75% = ++++)	85 (HLMLHTAAL; listed as Homo sapiens) [compound 85]
“+++” (>50 = +++)	265 (TLLADDLEIKL; listed as Homo sapiens) [compound 265]
“++++” (>75% = ++++)	232 (FMHQIIDQV; listed as Homo sapiens) [compound 232]
